Reference: patent US20250090663A1 (MYELOID THERAPEUTICS, published 2025)
Numbering of substitutions follows the chain as printed. One block for each binder: values may come before it.

Tests used:
[1] = biological target: T1, IL13RA2 Protein, Human, Recombinant (ECD)-His tag (human, UniProt Q14627 27-343); assay: BLI; biotinylated VHH captured on streptavidin biosensor, antigen 1 uM in solution
T1 construct: extracellular domain; also called human recombinant protein extracellular domain; human IL13Ra2-His6
T1 sequence: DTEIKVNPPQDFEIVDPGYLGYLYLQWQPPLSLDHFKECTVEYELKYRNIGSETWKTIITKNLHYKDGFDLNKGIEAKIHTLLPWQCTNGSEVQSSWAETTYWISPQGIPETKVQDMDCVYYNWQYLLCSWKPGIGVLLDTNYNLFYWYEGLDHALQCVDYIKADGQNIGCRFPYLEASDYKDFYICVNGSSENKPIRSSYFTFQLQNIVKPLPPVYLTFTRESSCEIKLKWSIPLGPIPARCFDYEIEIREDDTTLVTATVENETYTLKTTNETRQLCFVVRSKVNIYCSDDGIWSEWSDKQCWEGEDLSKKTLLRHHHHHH
Description: (§1) Binding Affinity for the VH domains with IL13Rα2 are calculated as follows: Biotinylated VHHs were individually captured on streptavidin biosensors. VHH-captured biosensors were dipped in wells containing antigen and the binding response was measured. Biosensors were later dipped in buffer wells to observe the dissociation of bound antigen from captured VHH. (Schematic representation of the process depicted in FIG. 26, upper left corner). In this case, the IL13RA2 protein used was human recombinant protein extracellular domain; Rhesus macaque IL13R alpha 2 protein with His tag or mouse recombinant His tagged protein or irrelevant protein His tagged were used as controls.

[2] = biological target: T2, IL13RA2 Protein, Rhesus macaque, His tag (Rhesus macaque, UniProt A0A5F8A9D9 27-343); assay: as above
T2 construct: the summary sentence says cynomolgous; also called Rhesus macaque IL13R alpha 2 protein with His tag; cynomolgous IL 13RA2 (as the text calls it); not shown: His tag
T2 sequence: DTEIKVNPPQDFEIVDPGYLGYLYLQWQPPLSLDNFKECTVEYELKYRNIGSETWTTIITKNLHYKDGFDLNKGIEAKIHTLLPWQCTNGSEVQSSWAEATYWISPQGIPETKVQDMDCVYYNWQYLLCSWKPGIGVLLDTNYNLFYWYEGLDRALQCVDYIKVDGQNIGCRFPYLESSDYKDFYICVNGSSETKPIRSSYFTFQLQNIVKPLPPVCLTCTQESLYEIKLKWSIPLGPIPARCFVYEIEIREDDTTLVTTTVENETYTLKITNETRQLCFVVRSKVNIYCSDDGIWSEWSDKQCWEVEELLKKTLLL
Description: as §1

[3] = biological target: T3, IL13RA2 Protein, mouse Recombinant- His tag (mouse, UniProt O88786 22-334, limits assumed); assay: as above
T3 construct: also called mouse recombinant His tagged protein; not shown: His tag
T3 sequence (looked up): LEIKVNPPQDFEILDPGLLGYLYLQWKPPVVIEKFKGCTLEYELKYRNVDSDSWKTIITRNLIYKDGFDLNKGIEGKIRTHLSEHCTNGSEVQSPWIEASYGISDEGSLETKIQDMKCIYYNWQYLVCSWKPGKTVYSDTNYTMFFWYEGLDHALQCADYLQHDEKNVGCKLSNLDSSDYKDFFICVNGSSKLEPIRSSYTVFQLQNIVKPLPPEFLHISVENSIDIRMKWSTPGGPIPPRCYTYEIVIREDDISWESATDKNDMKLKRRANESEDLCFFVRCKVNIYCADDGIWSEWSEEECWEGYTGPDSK
Description: as §1

Mouse CD70 mFc = biological target: T4, Mouse CD70 mFc (mouse, UniProt O55237 45-195); assay: BLI, single point; His-tagged VHH captured on HIS1K biosensor, antigen 1 uM in solution
T4 construct: not shown: mFc
T4 sequence (looked up): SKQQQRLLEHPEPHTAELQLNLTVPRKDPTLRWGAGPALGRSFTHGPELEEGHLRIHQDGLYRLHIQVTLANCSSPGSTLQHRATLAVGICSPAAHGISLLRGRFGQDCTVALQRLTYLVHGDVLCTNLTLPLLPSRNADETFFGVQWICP
Description: (§2) Next the polypeptides were characterized for CD70 binding kinetics, e.g. by affinity measurements. An affinity measurement method used in this study is illustrated in FIG. 1A, left bottom graphic image. Briefly, His-tagged VHH constructs were individually captured on HIS1K biosensors. VHH-captured biosensors were dipped in wells containing antigen and binding responses were measured. Biosensors were later dipped in buffer wells to observe the dissociation of bound antigen from the VHHs. Biosensors were regenerated and similar binding kinetic assays were performed for subsequent antigens. Single point KD analysis using BioLayer interferometry with a soluble VHH format was undertaken.

[4] = biological target: T2, IL13RA2 Protein, Rhesus macaque, His tag; assay: BLI; summary of Tables 9A-9C
Description: as §1

[5] = biological target: T3, IL13RA2 Protein, mouse Recombinant- His …; assay: BLI; summary of Tables 9A-9C
Description: as §1

Human CD70 mFc = biological target: T5, Human CD70 mFc (human, UniProt P32970 39-193); assay: BLI, single point; His-tagged VHH captured on HIS1K biosensor, antigen 1 uM in solution
T5 construct: not shown: mFc
T5 sequence (looked up): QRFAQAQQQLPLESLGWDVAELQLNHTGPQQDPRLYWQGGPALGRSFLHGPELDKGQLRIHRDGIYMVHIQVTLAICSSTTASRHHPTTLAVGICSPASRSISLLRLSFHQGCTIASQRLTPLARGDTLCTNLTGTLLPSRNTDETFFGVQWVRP
Description: as §2

Binding Response [1]: 0.67 nm | Kd [1]: 1.3 nM | koff [1]: 0.000133 s⁻¹ | t½ [1]: 87 min | Binding Response [2]: 1.02 nm | Kd [2]: ≤ 1.44 nM | koff [2]: ≤ 0.0001 s⁻¹ | kon [2]: 69300 M⁻¹ s⁻¹ | t½ [2]: ≥ 116 min | Binding Response [3]: -0.01 nm
B1: VH36f1 (VHH)
VHH: QVQLQESGGGSVQPGGSLRLSCAASGINISSDVMEWFRQGPGEQRELVAHITTNSRTEYADFVKGRFTISRANAKNTLYLQMNGLKPEDTALYYCALRRGGRILWGQGTQVTVSS
modifications: biotinylated (site not stated)
notes: Expressed in E. coli and 6xHIS purified; also called VH36f1 Biotin; Anti-IL13Rα2 VH36

Binding Response [1]: 1.04 nm | Kd [1]: 0.89 nM | koff [1]: 0.000118 s⁻¹ | t½ [1]: 98 min | Binding Response [2]: 1.35 nm | Kd [2]: ≤ 1.42 nM | koff [2]: ≤ 0.0001 s⁻¹ | kon [2]: 70200 M⁻¹ s⁻¹ | t½ [2]: ≥ 116 min | Binding Response [3]: -0.01 nm
B5: VH53f3 (VHH)
VHH: QVQLQESGGGLVQPGGSLRLSCEVSGSISSINRMAWYRQVPGKEREMVAQITYGDTIKYYGSAKGRFTISKDSAKNAVYLQMNSLKPEDTAVYRCNIVGVLTTGHYENSFWGQGTQVTVSS
modifications: biotinylated (site not stated)
notes: Expressed in E. coli and 6xHIS purified; also called VH53f3 Biotin; Anti-IL13Rα2 VH53

fold decrease in affinity compared to human counterpart [4]: ~2 fold | fold decrease in affinity compared to human counterpart [5]: ~2 fold | Binding Response [1]: 1.36 nm | Kd [1]: 1.84 nM | koff [1]: 0.000397 s⁻¹ | t½ [1]: 29 min | Binding Response [2]: 0.93 nm | Kd [2]: 112 nM | koff [2]: 0.00485 s⁻¹ | kon [2]: 41700 M⁻¹ s⁻¹ | t½ [2]: 2.4 min | Binding Response [3]: 1.17 nm | Kd [3]: 33.7 nM | koff [3]: 0.00485 s⁻¹ | kon [3]: 140000 M⁻¹ s⁻¹ | t½ [3]: 2.46 min
B6: VH57f5 (VHH)
VHH: QVQLQESGGGLVQPGGSLRLSCAASGSIFNTNGMGWYRQAPGKQRERVAGISSGGNTVYAASVEGRFTISRDNAKNTGYLQMNNLKPEDTAVYYCRVAGRQDDYWGQGTQVTVSS
modifications: biotinylated (site not stated)
notes: Expressed in E. coli and 6xHIS purified; also called VH57f5 Biotin; Anti-IL13Rα2 VH57

Binding Response [1]: 0.92 nm | Kd [1]: 4.65 nM | koff [1]: 0.000941 s⁻¹ | t½ [1]: 12.3 min | Binding Response [2]: 0.96 nm | Kd [2]: 27.1 nM | koff [2]: 0.00164 s⁻¹ | kon [2]: 60500 M⁻¹ s⁻¹ | t½ [2]: 7.04 min | Binding Response [3]: -0.04 nm
B8: VH43f2 (VHH)
VHH: QVQLQESGGGLVQPGGSLRLSCTASGSIRGIGYMAWGRQGPGKPRELIATINSAGDTNYAESVKGRFTVSRDNAENTLYLQMNNLKSEDTAVYYCNARPGLQSYWGQGTQVTVSS
modifications: biotinylated (site not stated)
notes: Expressed in E. coli and 6xHIS purified; also called VH43f2-Biotin; Anti-IL13Rα2 VH43

More lines, now with the values behind:

B2: IL13Ra2_2TIG4_f3 (VHH)
VHH: QVQLQESGGGLVQPGGSLRLSCAASGRTYGMGWFRQAPGKEREFVAVGVWSSGNTYYADFARGRFTISRDNAKNTVYLQMDSLKPEDTAVYYCAAPRYSSYTTYHAAYDYWGPGTQVTVSS
modifications: biotinylated (site not stated)
notes: Expressed in E. coli and 6xHIS purified; also called IL13Ra2_2TIG4_f3-Biotin
Binding Response [1]: 0.72 nm | Kd [1]: 5.02 nM | koff [1]: 0.000697 s⁻¹ | t½ [1]: 17 min | Binding Response [2]: 1.17 nm | Kd [2]: 3.62 nM | koff [2]: 0.000388 s⁻¹ | kon [2]: 107000 M⁻¹ s⁻¹ | t½ [2]: 30 min | Binding Response [3]: -0.02 nm

B3: Anti-CD70 VHH clone 3CEK186 (VHH)
VHH: QVQLQESGGGLVQTGGSLRLACTASGFTFDDYAIAWFRQAPGKEREFVAAISWSGGTTHYADSVKGRFTISRDNAKNTLYLQMSSLKPEDTAVYFCAKSLRSSPSSRWFGSRGQGTQVTVSS
notes: Soluble His-tagged VHH monomer captured on HIS1K biosensors; also called C1; C1 (WT)
Binding Response (Mouse CD70 mFc): 0.01 nm

B4: VH52f3 (VHH)
VHH: B5 VHH with S29F, G42E, K71R, N108D, S120P
modifications: biotinylated (site not stated)
notes: Expressed in E. coli and 6xHIS purified; also called VH52f3 Biotin; Anti-IL13Rα2 VH52
Binding Response [1]: 0.87 nm | Kd [1]: ≤ 0.806 nM | koff [1]: ≤ 0.0001 s⁻¹ | t½ [1]: ≥ 116 min | Binding Response [2]: 1.13 nm | Kd [2]: ≤ 1.49 nM | koff [2]: ≤ 0.0001 s⁻¹ | kon [2]: 67000 M⁻¹ s⁻¹ | t½ [2]: ≥ 116 min | Binding Response [3]: -0.02 nm

B7: Anti-CD70 VHH, 3HCS92 (VHH)
VHH: QVQLQESGGGLVQAGGSLRLSCAAPRSIFSINAMGWYRQAPGKQRELVAAITSGGSPTYADSVKGRFTISRDNAKNTVYLQMNSLKAEDTAVYYCATGPYGLDNALDAWGQGTQVTVSS
notes: Soluble His-tagged VHH monomer captured on HIS1K biosensors; also called H1; H1 (WT)
Binding Response (Human CD70 mFc): 0.87 nm | Kd (Human CD70 mFc): 5.29 nM | koff (Human CD70 mFc): 0.000377 s⁻¹ | kon (Human CD70 mFc): 71300 M⁻¹ s⁻¹ | t½ (Human CD70 mFc): 31 min | Binding Response (Mouse CD70 mFc): 0.03 nm | Kd (Mouse CD70 mFc): 334 nM | koff (Mouse CD70 mFc): 0.000427 s⁻¹ | kon (Mouse CD70 mFc): 1280 M⁻¹ s⁻¹ | t½ (Mouse CD70 mFc): 27 min
